Test results published in patent US20230257435A1, “Wound Healing Composition and Uses Thereof” (AGENCY FOR SCIENCE, TECHNOLOGY AND RESEARCH, priority 2020, published 2023).
Entries after “also recorded” stand apart in the source; their conditions may differ.

Columns and labels:
[1] = tested on: HEK cells; assay: Crossbow fibronectin micropatterns (geometric constraint); type: cell-based, human
Description: Tissue culture plates were coated with Col-T-gel (Fischer Scientific) of stiffness ranging from 0.8 KPa (soft) to 30 KPa (stiff) as per manufacturer recommendations and allowed to solidify for 40 min at 37° C. inside tissue culture incubators. Some experiments were performed with cells seeded on the poly-hydrogel plates of defined stiffness: 0.2 kPa and 16 kPa soft and hard polyhydrogels, respectively (CytoSoft, Advanced Biomatrix, Inc.,). The determination of stiffness of silicone substrates were done by the manufacturer as per previously published protocols. For certain experiments, indicated amounts of sAgrin was incorporated into the 0.8 KPa collagen gels before gelation process. Upon gelation, trypsinized cells or excised mouse skin explants were plated onto the gels of different stiffness either alone or containing sAgrin. The cells/tissues were incubated under standard culture condition with 500 μl recommended culture medium for the indicated days. The crossbow shaped micropatterns with fibronectin coated islands were generated by microlithography on a 19.5×19.5 mm coverslide from Cytoo, Inc., France. The micropatterns had surface areas of 800μ^2 or 1600μ^2, respectively. Fifty thousand cells after initial siRNA treatment was placed on the micropatterns for 4-6 h before processing them for immunofluorescence. […]

[2] = tested on: HaCaT cells; assay: Collective migration on soft/stiff substrates (stencil barrier); type: cell-based, human
Description: Tissue culture plates were coated with Col-T-gel (Fischer Scientific) of stiffness ranging from 0.8 KPa (soft) to 30 KPa (stiff) as per manufacturer recommendations and allowed to solidify for 40 min at 37° C. inside tissue culture incubators. Some experiments were performed with cells seeded on the poly-hydrogel plates of defined stiffness: 0.2 kPa and 16 kPa soft and hard polyhydrogels, respectively (CytoSoft, Advanced Biomatrix, Inc.,). The determination of stiffness of silicone substrates were done by the manufacturer as per previously published protocols. For certain experiments, indicated amounts of sAgrin was incorporated into the 0.8 KPa collagen gels before gelation process. Upon gelation, trypsinized cells or excised mouse skin explants were plated onto the gels of different stiffness either alone or containing sAgrin. The cells/tissues were incubated under standard culture condition with 500 μl recommended culture medium for the indicated days. The crossbow shaped micropatterns with fibronectin coated islands were generated by microlithography on a 19.5×19.5 mm coverslide from Cytoo, Inc., France. The micropatterns had surface areas of 800μ^2 or 1600μ^2, respectively. Fifty thousand cells after initial siRNA treatment was placed on the micropatterns for 4-6 h before processing them for immunofluorescence. For some experiments, 10 μg/ml sAgrin was added on the slides 18 h prior to the addition of cells.
A confluent monolayer of control and Agrin depleted cells in a 6-well plate was subjected to a unidirectional scratch using a 20 μl pipette tip. This was followed by washing with 1×PBS at room temperature and incubation in complete culture media at 37° C. and 5% CO2 with or without sAgrin used as indicated. Phase contrast images of the wound area were taken periodically at the indicated time-points. For some wound-healing migration assays, keratinocytes were cultured on either soft or stiff substrates within a stencil barrier (Nalge Nunc., Inc) for 18 h. Upon removal of the barrier, the cells were allowed to migrate and imaged using an Axiovert 200 inverted microscope at indicated time-points.

[3] = tested on: pMLC; assay: Force transmission via ligand conjugated magnetic beads; type: cell-based, human
Description: The ligands were conjugated to 4.5 μm epoxide paramagnetic beads (Dynabeads M-450 Epoxy, Thermo Fisher Scientific) according to the manufacturer's manual. Briefly, the beads were washed twice in 0.1 M sodium phosphate buffer, pH 7.4. Subsequently. 8×10^7 beads were conjugated to 20 μg sAgrin, BSA and FN per in 0.1 M sodium phosphate buffer at pH 7.4 for 16-18 h at 4° C. with gentle rotation throughout. The degree of protein conjugation to the beads was verified by a reducing SDS-PAGE gel analysis using a subset of ligand conjugated beads. The remaining beads were washed and subsequently stored in 0.1% BSA-phosphate buffered saline (PBS) pH 7.4 at 4° C. They were subsequently suspended in medium and added on the cells for 30 min at 37° C. After a brief wash with PBS to remove excess non-adherent beads, the cells were placed under a permanent neodymium magnet (J Magnetics, USA) at a distance of 6 mm apart for another 30 min that allowed a vertical tensile force in the magnitudes of ˜200 pN on the beads. The cells were then fixed in 4% paraformaldehyde, permeabilized and processed for immunofluorescence.

[4] = tested on: primary mouse keratinocytes over dermal fibroblasts; assay: 3D-stiffness dependent keratinocyte fibroblast co-culture migration assay; type: cell-based; conditions: 10 μg/ml sAgrin
From the text: A 3D in-vitro wound healing model was created using collagen constructs of defined stiffness modifying a previously published protocol. Collagen constructs were made with Col-T-gel (0.8 KPa-soft) or (30 KPa-stiff) as per manufacturer's recommended protocol containing 300,000 primary mouse dermal fibroblasts (DFs). For some experiments, siControl and siAgrin treated DFs were incorporated within soft or stiff collagen constructs. The constructs bearing fibroblasts were allowed to solidify for 45 min inside incubator. A second layer of collagen matching the stiffness of the underneath layer was added containing 350,000 of primary mouse keratinocytes (KRTs) and the construct was allowed to solidify for 3-4 h. After removing excess media, the constructs were washed gently with 1×PBS twice. An upside down 2μ pipette tip was inserted and gently rotated at the center of the constructs to create a circular wound. The collagen and cells was quickly removed from the wound area and replaced with 40 μl of soft or stiff Col-T-gel matching the consistency and set-up of the constructs. The resultant wounded constructs were placed inside the incubator and imaged after 30 min for day 0 time-points. The migratory keratinocytes were imaged till day 5 post-wounding.

B1: sAgrin: C-terminus recombinant Agrin fragment containing 8 amino acid 'Z8' insert and LG3 domain (SEQ ID NO: 7), His-tagged, expressed in E. coli (protein)
chain: DTLAFDGRTFVEYLNAVTESELANEIPVEKALQSNHFELSLRTEATQGLVLWSGKATERADYVALAIVDGHLQLSYNLGSQPVVLRSTVPVNTNRWLRVVAHREQREGSLQVGNEAPVTGSSPLGATQLDTDGALWLGGLPELPVGPALPKAYGTGFVGCLRDVVVGRHPLHLLEDAVTKPELRPCPTP
modifications: His tag
Q: For B1, which “F-actin stress fibers and pMLC in small crossbow patterns” value ([1]; 800μ^2 patterns, 20 μg/ml sAgrin) is on record?
A: Its value is “partially rescued F-actin stress fibers and higher pMLC recruitment to the transverse arc”.

Q: What about the “stress fiber formation in large crossbow patterns” value ([1]; 1600μ^2 patterns) of the same molecule?
A: The value was “further accentuated”.

Q: What about the “tension curvatures at transverse arcs” value ([1]; large crossbow patterns) of the same molecule?
A: The value was “significantly higher tension curvatures”.

Q: What about the “F-actin stress fibers and pMLC in MMP12 knockdown cells” value ([1]; large crossbow patterns, sAgrin nourishment) of the same molecule?
A: Its value is “did not exhibit F-actin stress fibers and pMLC enrichment in the transverse arcs”.

Q: And the “tension signature in Agrin depleted cells” value ([1]; sAgrin in FN crossbow matrix, large patterns)?
A: Its value is “restored the tension signature of F-actin stress fiber network and pMLC enriched transverse arcs”.

Q: What about the “collective migration rates on compliant substrates” value ([2]; 0.8 kPa, sAgrin 10 μg/ml, 24 h) of the same molecule?
A: Its value is “significantly promoted migration rates that was comparable to those in stiff ECM alone”.

Q: What about the “K17 expressing leader cells on soft substrates” value ([2]; soft substrate, sAgrin 10 μg/ml, 4 h) of the same molecule?
A: Its value is “stimulated collective migration by activating K17 expressing leader cells”.

Q: And the “fraction of K17 expressing leader cells in Agrin depleted cells” value ([2]; stiff ECM with sAgrin, 4 h)?
A: Its value is “significantly restored”.

Q: And the “migratory potential of Agrin depleted keratinocytes on stiff substrates” value ([2]; stiff matrix with 10 μg/ml sAgrin)?
A: The value was “significantly rescued”.

Q: What about the “K17 expressing migrating cells after MMP12 knockdown” value ([2]; stiff substrates (30 kPa), 20 μg/ml sAgrin) of the same molecule?
A: Its value is “not restored by the nourishment of sAgrin”.

Q: What about the “pMLC recruitment with increasing sAgrin coated beads” value ([3]; 30 min post-wound scratch) of the same molecule?
A: The value was “greater pMLC recruitment at 30 min post-wound scratch in a dose-dependent fashion”.

Q: What about the “pMLC intensity in MMP12 depleted cells after force transmission” value ([3]; 30 min post-wounding) of the same molecule?
A: The value was “unable to rescue the reduced pMLC intensity”.

Q: What about the “pMLC recruitment near beads in control cells with exogenous force” value ([3]; 30 min post-wounding) of the same molecule?
A: Its value is “further surged pMLC recruitment”.

Q: What about the “pMLC recruitment upon force in Agrin depleted cells (confocal)” value ([3]; 30 min post-wounding, compared to FN or BSA beads) of the same molecule?
A: Its value is “enhanced pMLC recruitment upon force application”.

Q: What about the “MMP12 recruitment in pMLC activated regions” value ([3]; Agrin depleted cells, force transmission) of the same molecule?
A: Its value is “effectively enhanced MMP12 recruitment in pMLC activated regions”.

Q: And the “increase of pMLC around the bead vicinity” value ([3]; Agrin depleted cells, force with sAgrin beads 30 min)?
A: Its value is about 2 folds.

Q: And the “activated integrin β1-Agrin localization” value ([3]; control migrating keratinocytes, ligand beads, force)?
A: The value was “substantially increased activated integrin β1-Agrin localization”.

Q: What about the “rescue of reduced pMLC in Agrin depleted cells by force through ligand beads” value ([3]; siAgrin cells) of the same molecule?
A: The value was “only restored by force transduced by sAgrin”.

Q: What about the “keratinocyte migration in soft matrix” value ([4]; 0.8 KPa, day 5) of the same molecule?
A: The value was “strongly enhanced keratinocyte migration; also recorded: stimulated mouse keratinocyte migration over dermal fibroblasts”.

Q: What about the “keratinocyte migration in stiff matrix, Agrin depleted KRTs and DFs” value ([4]; 30 KPa) of the same molecule?
A: The value was “strongly restored keratinocyte migration”.

Q: What about the “keratinocyte migration, MMP12 depleted KRTs and DFs” value ([4]; soft matrix 0.8 KPa) of the same molecule?
A: Its value is “not even rescued by sAgrin supplemented compliant matrices”.
